Source: article PMC2835542

Target: human epidermal growth factor receptor (EGFR), stably over-expressed on rat 9L gliosarcoma cells (human) (UniProt P00533)
Experiment: X-gal staining of live cells incubated with β-gal-labelled ligand complex

Substance “EGF ligand-complex with full-length β-gal reporter (EGF-B-SA-B-β-gal)” has a percent of cells labelled greater than 75%.
